Data published in publication PMC5241874.

Substrate: O=C(O)CC(C(=O)O)C(O)C(=O)O
Assay: purified protein
Format: biochemical, Homo sapiens
Details: no activators, 2 mM Mn2+, 3.2 mM NAD, 33 mM Tris-acetate pH 7.4, 25 °C, Hill 2.0, racemic DL-ICT varied

Protein	K0.5 (Hill 1.0) [mM]	kcat/Km (Hill 1.0) [M⁻¹ s⁻¹]	K0.5 (Hill 1.1) [mM]	kcat/Km (Hill 1.1) [M⁻¹ s⁻¹]
αγ heterodimer of human NAD-IDH (IDH3) (Homo sapiens; P51553:R136A) (protein, alpha and gamma co-expressed in E. coli BL21(DE3) from pQlinkN; gamma C-terminal TEV-His6, His6 cleaved by TEV; 80 kDa heterodimer (dimer of heterodimers at high concentration)) chain 1: TGGVQTVTLIPGDGIGPEISAAVMKIFDAAKAPIQWEERNVTAIQGPGGKWMIPSEAKESMDKNKMGLKGPLKTPIAAGHPSMNLLLRKTFDLYANVRPCVSIEGYKTPYTDVNIVTIRENTEGEYSGIEHVIVDGVVQSIKLITEGASKRIAEFAFEYARNNHRSNVTAVHKANIMRMSDGLFLQKCREVAESCKDIKFNEMYLDTVCLNMVQDPSQFDVLVMPNLYGDILSDLCAGLIGGLGVTPSGNIGANGVAIFESVHGTAPDIAGKDMANPTALLLSAVMMLRHMGLFDHAARIEAACFATIKDGKSLTKDLGGNAKCSDFTEEICRRVKDLD chain 2: FSEQTIPPSAKYGGRHTVTMIPGDGIGPELMLHVKSVFRHACVPVDFEEVHVSSNADEEDIRNAIMAIRRNRVALKGNIETNHNLPPSHKSRNNILATSLDLYANVIHCKSLPGVVTRHKDIDILIVRENTEGEYSSLEHESVAGVVESLKIITKAKSLRIAEYAFKLAQESGRKKVTAVHKANIMKLGDGLFLQCCREVAARYPQITFENMIVDNTTMQLVSRPQQFDVMVMPNLYGNIVNNVCAGLVGGPGLVAGANYGHVYAVFETATRNTGKSIANKNIANPTATLLASCMMLDHLKLHSYATSIRKAVLASMDNENMHTPDIGGQGTTSEAIQDVIRHIRVINGRAVEA	4.51 ± 0.43	330 ± 10		
αγ heterodimer of human NAD-IDH (IDH3) (Homo sapiens; P51553:R167A) (protein, alpha and gamma co-expressed in E. coli BL21(DE3) from pQlinkN; gamma C-terminal TEV-His6, His6 cleaved by TEV; 80 kDa heterodimer (dimer of heterodimers at high concentration)) chain 1: TGGVQTVTLIPGDGIGPEISAAVMKIFDAAKAPIQWEERNVTAIQGPGGKWMIPSEAKESMDKNKMGLKGPLKTPIAAGHPSMNLLLRKTFDLYANVRPCVSIEGYKTPYTDVNIVTIRENTEGEYSGIEHVIVDGVVQSIKLITEGASKRIAEFAFEYARNNHRSNVTAVHKANIMRMSDGLFLQKCREVAESCKDIKFNEMYLDTVCLNMVQDPSQFDVLVMPNLYGDILSDLCAGLIGGLGVTPSGNIGANGVAIFESVHGTAPDIAGKDMANPTALLLSAVMMLRHMGLFDHAARIEAACFATIKDGKSLTKDLGGNAKCSDFTEEICRRVKDLD chain 2: FSEQTIPPSAKYGGRHTVTMIPGDGIGPELMLHVKSVFRHACVPVDFEEVHVSSNADEEDIRNAIMAIRRNRVALKGNIETNHNLPPSHKSRNNILRTSLDLYANVIHCKSLPGVVTRHKDIDILIVAENTEGEYSSLEHESVAGVVESLKIITKAKSLRIAEYAFKLAQESGRKKVTAVHKANIMKLGDGLFLQCCREVAARYPQITFENMIVDNTTMQLVSRPQQFDVMVMPNLYGNIVNNVCAGLVGGPGLVAGANYGHVYAVFETATRNTGKSIANKNIANPTATLLASCMMLDHLKLHSYATSIRKAVLASMDNENMHTPDIGGQGTTSEAIQDVIRHIRVINGRAVEA			8.57 ± 0.42	260 ± 10
αγ heterodimer of human NAD-IDH (IDH3) (Homo sapiens; P51553:Y174F) (protein, alpha and gamma co-expressed in E. coli BL21(DE3) from pQlinkN; gamma C-terminal TEV-His6, His6 cleaved by TEV; 80 kDa heterodimer (dimer of heterodimers at high concentration)) chain 1: TGGVQTVTLIPGDGIGPEISAAVMKIFDAAKAPIQWEERNVTAIQGPGGKWMIPSEAKESMDKNKMGLKGPLKTPIAAGHPSMNLLLRKTFDLYANVRPCVSIEGYKTPYTDVNIVTIRENTEGEYSGIEHVIVDGVVQSIKLITEGASKRIAEFAFEYARNNHRSNVTAVHKANIMRMSDGLFLQKCREVAESCKDIKFNEMYLDTVCLNMVQDPSQFDVLVMPNLYGDILSDLCAGLIGGLGVTPSGNIGANGVAIFESVHGTAPDIAGKDMANPTALLLSAVMMLRHMGLFDHAARIEAACFATIKDGKSLTKDLGGNAKCSDFTEEICRRVKDLD chain 2: FSEQTIPPSAKYGGRHTVTMIPGDGIGPELMLHVKSVFRHACVPVDFEEVHVSSNADEEDIRNAIMAIRRNRVALKGNIETNHNLPPSHKSRNNILRTSLDLYANVIHCKSLPGVVTRHKDIDILIVRENTEGEFSSLEHESVAGVVESLKIITKAKSLRIAEYAFKLAQESGRKKVTAVHKANIMKLGDGLFLQCCREVAARYPQITFENMIVDNTTMQLVSRPQQFDVMVMPNLYGNIVNNVCAGLVGGPGLVAGANYGHVYAVFETATRNTGKSIANKNIANPTATLLASCMMLDHLKLHSYATSIRKAVLASMDNENMHTPDIGGQGTTSEAIQDVIRHIRVINGRAVEA			8.80 ± 0.54	270 ± 10
αγ heterodimer of human NAD-IDH (IDH3) (Homo sapiens; P51553:R311A) (protein, alpha and gamma co-expressed in E. coli BL21(DE3) from pQlinkN; gamma C-terminal TEV-His6, His6 cleaved by TEV; 80 kDa heterodimer (dimer of heterodimers at high concentration)) chain 1: TGGVQTVTLIPGDGIGPEISAAVMKIFDAAKAPIQWEERNVTAIQGPGGKWMIPSEAKESMDKNKMGLKGPLKTPIAAGHPSMNLLLRKTFDLYANVRPCVSIEGYKTPYTDVNIVTIRENTEGEYSGIEHVIVDGVVQSIKLITEGASKRIAEFAFEYARNNHRSNVTAVHKANIMRMSDGLFLQKCREVAESCKDIKFNEMYLDTVCLNMVQDPSQFDVLVMPNLYGDILSDLCAGLIGGLGVTPSGNIGANGVAIFESVHGTAPDIAGKDMANPTALLLSAVMMLRHMGLFDHAARIEAACFATIKDGKSLTKDLGGNAKCSDFTEEICRRVKDLD chain 2: FSEQTIPPSAKYGGRHTVTMIPGDGIGPELMLHVKSVFRHACVPVDFEEVHVSSNADEEDIRNAIMAIRRNRVALKGNIETNHNLPPSHKSRNNILRTSLDLYANVIHCKSLPGVVTRHKDIDILIVRENTEGEYSSLEHESVAGVVESLKIITKAKSLRIAEYAFKLAQESGRKKVTAVHKANIMKLGDGLFLQCCREVAARYPQITFENMIVDNTTMQLVSRPQQFDVMVMPNLYGNIVNNVCAGLVGGPGLVAGANYGHVYAVFETATANTGKSIANKNIANPTATLLASCMMLDHLKLHSYATSIRKAVLASMDNENMHTPDIGGQGTTSEAIQDVIRHIRVINGRAVEA	19.3 ± 1.0	210 ± 10		
αγ heterodimer of human NAD-IDH (IDH3) (Homo sapiens; P50213:Y255F) (protein, alpha and gamma co-expressed in E. coli BL21(DE3) from pQlinkN; gamma C-terminal TEV-His6, His6 cleaved by TEV; 80 kDa heterodimer (dimer of heterodimers at high concentration)) chain 1: TGGVQTVTLIPGDGIGPEISAAVMKIFDAAKAPIQWEERNVTAIQGPGGKWMIPSEAKESMDKNKMGLKGPLKTPIAAGHPSMNLLLRKTFDLYANVRPCVSIEGYKTPYTDVNIVTIRENTEGEYSGIEHVIVDGVVQSIKLITEGASKRIAEFAFEYARNNHRSNVTAVHKANIMRMSDGLFLQKCREVAESCKDIKFNEMYLDTVCLNMVQDPSQFDVLVMPNLFGDILSDLCAGLIGGLGVTPSGNIGANGVAIFESVHGTAPDIAGKDMANPTALLLSAVMMLRHMGLFDHAARIEAACFATIKDGKSLTKDLGGNAKCSDFTEEICRRVKDLD chain 2: FSEQTIPPSAKYGGRHTVTMIPGDGIGPELMLHVKSVFRHACVPVDFEEVHVSSNADEEDIRNAIMAIRRNRVALKGNIETNHNLPPSHKSRNNILRTSLDLYANVIHCKSLPGVVTRHKDIDILIVRENTEGEYSSLEHESVAGVVESLKIITKAKSLRIAEYAFKLAQESGRKKVTAVHKANIMKLGDGLFLQCCREVAARYPQITFENMIVDNTTMQLVSRPQQFDVMVMPNLYGNIVNNVCAGLVGGPGLVAGANYGHVYAVFETATRNTGKSIANKNIANPTATLLASCMMLDHLKLHSYATSIRKAVLASMDNENMHTPDIGGQGTTSEAIQDVIRHIRVINGRAVEA			14.5 ± 0.9	46 ± 2
αγ heterodimer of human NAD-IDH (IDH3) (Homo sapiens; P51553:K190A) (protein, alpha and gamma co-expressed in E. coli BL21(DE3) from pQlinkN; gamma C-terminal TEV-His6, His6 cleaved by TEV; 80 kDa heterodimer (dimer of heterodimers at high concentration)) chain 1: TGGVQTVTLIPGDGIGPEISAAVMKIFDAAKAPIQWEERNVTAIQGPGGKWMIPSEAKESMDKNKMGLKGPLKTPIAAGHPSMNLLLRKTFDLYANVRPCVSIEGYKTPYTDVNIVTIRENTEGEYSGIEHVIVDGVVQSIKLITEGASKRIAEFAFEYARNNHRSNVTAVHKANIMRMSDGLFLQKCREVAESCKDIKFNEMYLDTVCLNMVQDPSQFDVLVMPNLYGDILSDLCAGLIGGLGVTPSGNIGANGVAIFESVHGTAPDIAGKDMANPTALLLSAVMMLRHMGLFDHAARIEAACFATIKDGKSLTKDLGGNAKCSDFTEEICRRVKDLD chain 2: FSEQTIPPSAKYGGRHTVTMIPGDGIGPELMLHVKSVFRHACVPVDFEEVHVSSNADEEDIRNAIMAIRRNRVALKGNIETNHNLPPSHKSRNNILRTSLDLYANVIHCKSLPGVVTRHKDIDILIVRENTEGEYSSLEHESVAGVVESLAIITKAKSLRIAEYAFKLAQESGRKKVTAVHKANIMKLGDGLFLQCCREVAARYPQITFENMIVDNTTMQLVSRPQQFDVMVMPNLYGNIVNNVCAGLVGGPGLVAGANYGHVYAVFETATRNTGKSIANKNIANPTATLLASCMMLDHLKLHSYATSIRKAVLASMDNENMHTPDIGGQGTTSEAIQDVIRHIRVINGRAVEA			8.12 ± 0.16	90 ± 2
αγ heterodimer of human NAD-IDH (IDH3) (Homo sapiens; P51553:D229A) (protein, alpha and gamma co-expressed in E. coli BL21(DE3) from pQlinkN; gamma C-terminal TEV-His6, His6 cleaved by TEV; 80 kDa heterodimer (dimer of heterodimers at high concentration)) chain 1: TGGVQTVTLIPGDGIGPEISAAVMKIFDAAKAPIQWEERNVTAIQGPGGKWMIPSEAKESMDKNKMGLKGPLKTPIAAGHPSMNLLLRKTFDLYANVRPCVSIEGYKTPYTDVNIVTIRENTEGEYSGIEHVIVDGVVQSIKLITEGASKRIAEFAFEYARNNHRSNVTAVHKANIMRMSDGLFLQKCREVAESCKDIKFNEMYLDTVCLNMVQDPSQFDVLVMPNLYGDILSDLCAGLIGGLGVTPSGNIGANGVAIFESVHGTAPDIAGKDMANPTALLLSAVMMLRHMGLFDHAARIEAACFATIKDGKSLTKDLGGNAKCSDFTEEICRRVKDLD chain 2: FSEQTIPPSAKYGGRHTVTMIPGDGIGPELMLHVKSVFRHACVPVDFEEVHVSSNADEEDIRNAIMAIRRNRVALKGNIETNHNLPPSHKSRNNILRTSLDLYANVIHCKSLPGVVTRHKDIDILIVRENTEGEYSSLEHESVAGVVESLKIITKAKSLRIAEYAFKLAQESGRKKVTAVHKANIMKLGAGLFLQCCREVAARYPQITFENMIVDNTTMQLVSRPQQFDVMVMPNLYGNIVNNVCAGLVGGPGLVAGANYGHVYAVFETATRNTGKSIANKNIANPTATLLASCMMLDHLKLHSYATSIRKAVLASMDNENMHTPDIGGQGTTSEAIQDVIRHIRVINGRAVEA			10.2 ± 0.6	730 ± 40
αγ heterodimer of human NAD-IDH (IDH3) (Homo sapiens; P51553:Y276F) (protein, alpha and gamma co-expressed in E. coli BL21(DE3) from pQlinkN; gamma C-terminal TEV-His6, His6 cleaved by TEV; 80 kDa heterodimer (dimer of heterodimers at high concentration)) chain 1: TGGVQTVTLIPGDGIGPEISAAVMKIFDAAKAPIQWEERNVTAIQGPGGKWMIPSEAKESMDKNKMGLKGPLKTPIAAGHPSMNLLLRKTFDLYANVRPCVSIEGYKTPYTDVNIVTIRENTEGEYSGIEHVIVDGVVQSIKLITEGASKRIAEFAFEYARNNHRSNVTAVHKANIMRMSDGLFLQKCREVAESCKDIKFNEMYLDTVCLNMVQDPSQFDVLVMPNLYGDILSDLCAGLIGGLGVTPSGNIGANGVAIFESVHGTAPDIAGKDMANPTALLLSAVMMLRHMGLFDHAARIEAACFATIKDGKSLTKDLGGNAKCSDFTEEICRRVKDLD chain 2: FSEQTIPPSAKYGGRHTVTMIPGDGIGPELMLHVKSVFRHACVPVDFEEVHVSSNADEEDIRNAIMAIRRNRVALKGNIETNHNLPPSHKSRNNILRTSLDLYANVIHCKSLPGVVTRHKDIDILIVRENTEGEYSSLEHESVAGVVESLKIITKAKSLRIAEYAFKLAQESGRKKVTAVHKANIMKLGDGLFLQCCREVAARYPQITFENMIVDNTTMQLVSRPQQFDVMVMPNLFGNIVNNVCAGLVGGPGLVAGANYGHVYAVFETATRNTGKSIANKNIANPTATLLASCMMLDHLKLHSYATSIRKAVLASMDNENMHTPDIGGQGTTSEAIQDVIRHIRVINGRAVEA	14.8 ± 0.5	250 ± 10		
